± gives the standard error. Fewer inactive variants are shown than the library holds.
B1: glmS ribozyme (parent)
chain: AUAAAAGCGCCAGAACUACAGAAAUGUAGUUGACGAGGAGGAGGUUUAUCGAAUUUUCGGCGGAUGCCUCCAAA

Experiments:
Settings in all cases: with glucosamine-6-phosphate
glucosamine-6-phosphate [1] = variants of: B1; test: self-cleavage kobs at 40 uM GlcN6P; higher = faster cleavage; RNA array
Procedure, shortened: (§1)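 Sequenced MiSeq chips were the platform: E. coli RNA polymerase transcribed barcoded ribozyme variants on them in situ, and a hybridised Cy3 probe tracked these at 37 °C. After glucosamine-6-phosphate (40 μM to 10 mM) in HEPES/KCl/Mg(OAc)2 buffer was flowed in, tiles were imaged over ~14 h. Signals normalised to baseline and to non-cleaving reference variants were reduced to per-tile medians and fit to one- or two-exponential decays to obtain kobs. kcat and KM were derived through weighted Michaelis–Menten fits across concentrations.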

glucosamine-6-phosphate [2] = variants of: B1; test: self-cleavage kobs at 160 uM GlcN6P; higher = faster cleavage; RNA array
Procedure, shortened: as §1

glucosamine-6-phosphate [3] = variants of: B1; test: self-cleavage kobs at 640 uM GlcN6P; higher = faster cleavage; RNA array
Procedure, shortened: as §1

glucosamine-6-phosphate [4] = variants of: B1; test: self-cleavage kobs at 10000 uM GlcN6P; higher = faster cleavage; RNA array
Procedure, shortened: as §1

glucosamine-6-phosphate [5] = variants of: B1; test: self-cleavage kobs at 2500 uM GlcN6P; higher = faster cleavage; RNA array
Procedure, shortened: as §1

| Variant | self-cleavage kobs at 40 uM GlcN6P (glucosamine-6-phosphate [1]) | self-cleavage kobs at 160 uM GlcN6P (glucosamine-6-phosphate [2]) | self-cleavage kobs at 640 uM GlcN6P (glucosamine-6-phosphate [3]) | self-cleavage kobs at 10000 uM GlcN6P (glucosamine-6-phosphate [4]) | self-cleavage kobs at 2500 uM GlcN6P (glucosamine-6-phosphate [5]) |
| --- | --- | --- | --- | --- | --- |
| G9U A53U | < 1e-05 s⁻¹ | < 1e-05 s⁻¹ | < 1e-05 s⁻¹ | < 1e-05 s⁻¹ | – |
| C8G U31C A33U U46C C67A | < 1e-05 s⁻¹ | – | – | < 1e-05 s⁻¹ | – |
| G9A C50G C70G | 9.06e-05 ± 2.7e-05 s⁻¹ | – | – | 4.63e-05 ± 1.4e-05 s⁻¹ | – |
| G9A C58U | < 1e-05 s⁻¹ | < 1e-05 s⁻¹ | < 1e-05 s⁻¹ | < 1e-05 s⁻¹ | < 1e-05 s⁻¹ |
| G9U G40U G44C G60U | < 1e-05 s⁻¹ | – | – | < 1e-05 s⁻¹ | – |
| G9U C16A | < 1e-05 s⁻¹ | < 1e-05 s⁻¹ | < 1e-05 s⁻¹ | < 1e-05 s⁻¹ | < 1e-05 s⁻¹ |
| C8U U57C | < 1e-05 s⁻¹ | < 1e-05 s⁻¹ | < 1e-05 s⁻¹ | < 1e-05 s⁻¹ | < 1e-05 s⁻¹ |
| C8G C34A | < 1e-05 s⁻¹ | < 1e-05 s⁻¹ | – | < 1e-05 s⁻¹ | < 1e-05 s⁻¹ |
| G9A G29C G32C U45C A53C | < 1e-05 s⁻¹ | – | – | – | – |
| G9A C10G G32U A48G | < 1e-05 s⁻¹ | – | – | – | – |
| C8U | < 1e-05 s⁻¹ | < 1e-05 s⁻¹ | < 1e-05 s⁻¹ | – | < 1e-05 s⁻¹ |
| C8G | < 1e-05 s⁻¹ | < 1e-05 s⁻¹ | < 1e-05 s⁻¹ | < 1e-05 s⁻¹ | < 1e-05 s⁻¹ |
| C8G G13A | < 1e-05 s⁻¹ | – | < 1e-05 s⁻¹ | < 1e-05 s⁻¹ | < 1e-05 s⁻¹ |
| C8G U31A U57A | < 1e-05 s⁻¹ | – | – | < 1e-05 s⁻¹ | < 1e-05 s⁻¹ |
| C8G C58A | < 1e-05 s⁻¹ | < 1e-05 s⁻¹ | < 1e-05 s⁻¹ | < 1e-05 s⁻¹ | < 1e-05 s⁻¹ |
| G9A A39G | < 1e-05 s⁻¹ | < 1e-05 s⁻¹ | – | – | – |
| C8U A14G C16U | < 1e-05 s⁻¹ | – | – | < 1e-05 s⁻¹ | – |
| G9A C11U | < 1e-05 s⁻¹ | < 1e-05 s⁻¹ | < 1e-05 s⁻¹ | < 1e-05 s⁻¹ | < 1e-05 s⁻¹ |
| G9A G44C | < 1e-05 s⁻¹ | – | < 1e-05 s⁻¹ | – | < 1e-05 s⁻¹ |
| C8U U47A | < 1e-05 s⁻¹ | < 1e-05 s⁻¹ | < 1e-05 s⁻¹ | < 1e-05 s⁻¹ | – |
| C8A G35C | < 1e-05 s⁻¹ | < 1e-05 s⁻¹ | < 1e-05 s⁻¹ | < 1e-05 s⁻¹ | < 1e-05 s⁻¹ |

| Variant | self-cleavage kobs at 40 uM GlcN6P (glucosamine-6-phosphate [1]) | self-cleavage kobs at 160 uM GlcN6P (glucosamine-6-phosphate [2]) | self-cleavage kobs at 640 uM GlcN6P (glucosamine-6-phosphate [3]) | self-cleavage kobs at 10000 uM GlcN6P (glucosamine-6-phosphate [4]) | self-cleavage kobs at 2500 uM GlcN6P (glucosamine-6-phosphate [5]) |
| --- | --- | --- | --- | --- | --- |
| G9C G44A | < 1e-05 s⁻¹ | < 1e-05 s⁻¹ | < 1e-05 s⁻¹ | < 1e-05 s⁻¹ | < 1e-05 s⁻¹ |
| C8G U45A | < 1e-05 s⁻¹ | < 1e-05 s⁻¹ | < 1e-05 s⁻¹ | < 1e-05 s⁻¹ | – |
| G9C G62A | < 1e-05 s⁻¹ | – | < 1e-05 s⁻¹ | < 1e-05 s⁻¹ | – |
| G9A C70U | < 1e-05 s⁻¹ | – | < 1e-05 s⁻¹ | 2.28e-05 ± 1e-05 s⁻¹ | – |
| C8G G62U | < 1e-05 s⁻¹ | < 1e-05 s⁻¹ | < 1e-05 s⁻¹ | – | < 1e-05 s⁻¹ |
| C8G G62A | < 1e-05 s⁻¹ | – | – | – | < 1e-05 s⁻¹ |
| G9C G66U | < 1e-05 s⁻¹ | < 1e-05 s⁻¹ | < 1e-05 s⁻¹ | < 1e-05 s⁻¹ | < 1e-05 s⁻¹ |
| G9A G40U C50G | < 1e-05 s⁻¹ | – | – | – | – |
| G9C U55G | < 1e-05 s⁻¹ | – | – | < 1e-05 s⁻¹ | – |
| C8U C16G C50G | 0.000158 ± 3.8e-05 s⁻¹ | – | – | 8.29e-05 ± 1.9e-05 s⁻¹ | – |
| G9C A15U | < 1e-05 s⁻¹ | < 1e-05 s⁻¹ | < 1e-05 s⁻¹ | < 1e-05 s⁻¹ | < 1e-05 s⁻¹ |
| C8G G29U C71G | < 1e-05 s⁻¹ | – | – | – | – |
| C8U A42U G44A U56C | < 1e-05 s⁻¹ | – | – | – | – |
| G9C C10A A52C C61U | < 1e-05 s⁻¹ | – | – | < 1e-05 s⁻¹ | – |
| C8A C34U G35U G43A U45G U54C | < 1e-05 s⁻¹ | – | – | < 1e-05 s⁻¹ | – |
| C8U G41C | < 1e-05 s⁻¹ | – | < 1e-05 s⁻¹ | < 1e-05 s⁻¹ | – |
| G9C A39G | < 1e-05 s⁻¹ | – | – | < 1e-05 s⁻¹ | < 1e-05 s⁻¹ |
| C8A G35C G66A C70G | < 1e-05 s⁻¹ | – | – | < 1e-05 s⁻¹ | – |
| C8G U30G | < 1e-05 s⁻¹ | < 1e-05 s⁻¹ | < 1e-05 s⁻¹ | < 1e-05 s⁻¹ | – |
| C8U G43U | < 1e-05 s⁻¹ | < 1e-05 s⁻¹ | – | < 1e-05 s⁻¹ | < 1e-05 s⁻¹ |
| C8G A15G A39G C67G | < 1e-05 s⁻¹ | – | – | – | – |

Reference: the supplement of paper PMC7125110
